The text below walks through data of the nanobody polyreactivity screen of Harvey et al. (2022).

The data set can be described thus: yeast display, Sf9 membrane polyspecificity reagent, FACS + sequencing; frameworks hold sequencing errors. In short, it runs like this:
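After 36–48 hours of galactose induction, yeast (Saccharomyces cerevisiae BJ5465) displaying a synthetic nanobody library were stained at 4 °C for 1 hour with 10% biotinylated, detergent-solubilized Sf9 membrane reagent. Streptavidin microbeads enriched the stained cells before FACS sorting into low and high (top ~1%) gates on anti-HA and streptavidin fluorescence. Each clone's polyreactivity label reflects its gate of origin.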
Consider “QVQLVESGGGLVQAGGSLRLSCAASGRIFYGYAMGWYRQAPGKERELVAAISKSGTRTYYADSVKGRFTISRDNAKNTVYLQMNSLKPEDTAVFYCNARGYPYDTYNEYYYWGQGTQVTVSS”, for which the “polyreactivity (PSR sort gate)” value is “high polyreactivity”.
Take “QVQLVESGGGLVQAGGSLRLSCAASGRIFYGYAMGWYRQAPGKERELVAAISWRGGRTYYADSVKGRFTISRDNAKNTVYLQMNSLKPEDTAVYYCNKDFPPQGQLRNMYYWGQGTQVTVSS”: the “polyreactivity (PSR sort gate)” value was “high polyreactivity”.
To “QVQLVESGGGLVQAGGSLRLSCAASGRIFYGYAMGWYRQAPGKERELVAGISYRGARTYYADSVKGRFTISRDNAKNTVYLQMNSLKPEDTAVYYCNAVPYYPFAFGALDYWGQGTQVTVSS” belongs “high polyreactivity”; to “QVQLVESGGGLVQAGGSLRLSCAASGRIFYGYTMGWYREAPGIERELVASITIRGSRTYYADSVKGRFTISRDNAKNTVYLQMTSLKPEDTAVYYCAADFVPARTVHRYDYWGQGTQVTVSS”, “low polyreactivity”.
The result for “QVQLVESGGGLVQAGGSLRLSCAASGRIFYGYTMGWYRQAPGKERELVAAITQRGGNTHYADSVKGRFTISRDNGKNTVYLHMNRLKPEDTAVYYCAAKYYPYVRGVQYYYWGQGTQVTVSS” reads “high polyreactivity”.
The result for “QVQLVESGGGLVQAGGSLRLSCAASGRIFYINAMGWYRQAPGKEMELVAAITGSVGSTYYADSVKGRFTISRDNAKNTVYLLMNSQKPEDTAVYYCAASDQPYNGGDGDYWGQGTQVTVSS” reads “low polyreactivity”; that for “QVQLVESGGGLVQAGGSLRLSCAASGRIFYINDMGCYRQAPGKEREFVASITGSGGRTYYADSVKGRFTISRDNAKNTVYLQMNSLKPEDTAVYYCNADLYVGYLYYLYDYWGQVTQVTVSS”, “low polyreactivity”.
On to “QVQLVESGGGLVQAGGSLRLSCAASGRIFYKNAMGWYRQAPGKERELVATITYSDGTTYYADSVKGRFTISRDNAKNTVYLQMNSLKPEDTAVYYCAAQTDSVESDYWGQGTQVTVSS”, for which the “polyreactivity (PSR sort gate)” value is reported as “low polyreactivity”.
To “QVQLVESGGGLVQAGGSLRLSCAASGRIFYKYAMGWYRQAPGKERELVAAISTGGTRTYYADSVKGRFTISRDNAKNTVYLQMNSLKPEDTAVYYCAARGGDKTYYYWGQGTQVTVSS” belongs “high polyreactivity”; to “QVQLVESGGGLVQAGGSLRLSCAASGRIFYKYAMGWYRQAPGKERELVAAITTSGGSTYYADSVKGRFTISRDNAKNTVYLQMNSLKPEDTAVYYCARDLNGRFLTTGRGMDYWGQGTQVTVSS”, “high polyreactivity”.
Turning to “QVQLVESGGGLVQAGGSLRLSCAASGRIFYLNVMGWYRQAPGKERELVAAITRRDVTTYADSVKGRFTISRDNAKNTVYLQMKSLKPEDTAFYYCNAVYYNWIGFDYWGQGTQVTVSS”, the “polyreactivity (PSR sort gate)” value was “low polyreactivity”.
The result for “QVQLVESGGGLVQAGGSLRLSCAASGRIFYLYAMGWYRQAPGKERELVAAITWSGGSTYYADSVKGRFTISRDNAKNTVYLQMNSLKPEDTAVYYCARDDAYSDFDYDYWGQGTQVTVSS” reads “low polyreactivity”; that for “QVQLVESGGGLVQAGGSLRLSCAASGRIFYLYAMGWYRQAPGKERELVARITSGSGTYYADSVKGRFTISRDNAKNTVYLQMNSLKPEDTAVYYCAAREPGVGYVGHYTGLDYWGQGTQVTVSS”, “low polyreactivity”; that for “QVQLVESGGGLVQAGGSLRLSCAASGRIFYLYAMGWYRQAPGKERELVATINTSGGITYYADSVKGRFTISRDNAKNTVYLQMNSLKPEDTAVYYCNADWEWLYFYFRPGGYWGQGTQVTVSS”, “low polyreactivity”.
As for “QVQLVESGGGLVQAGGSLRLSCAASGRIFYLYTMGWYRQAPGKEREFSTYYADSVKGRFTISRDNAKNTVYLQMNSLKPEDTAVYYCNKGSDGFTTGEGDYWGQGTQVTVSS”, the “polyreactivity (PSR sort gate)” value is “low polyreactivity”.
The result for “QVQLVESGGGLVQAGGSLRLSCAASGRIFYLYTMGWYRQAPGKERELVAASTRAGRTYYADSVKGRFTISRDNAKNTVYLQMNSLKPEDTAVYYCAAAFLSRVQGYDSWGQGTQVTVSS” reads “high polyreactivity”; that for “QVQLVESGGGLVQAGGSLRLSCAASGRIFYNNAMGWYRQAPGKERELVAAIDWPGGSTDYADSVKGRFTISRDNAKNTVYLQMNSLKPEDTAVYYCVAGHVPYWHGNSYDYWGQGTQVTVSS”, “low polyreactivity”; that for “QVQLVESGGGLVQAGGSLRLSCAASGRIFYNNAMGWYRQAPGKERELVASITRNGGRTYYADSVKGRFTISRDNAKNTVYLKMNSLKREDTAVYYCAIDYSRGQIRAGAYEYWGQGTQVTVSS”, “high polyreactivity”.
The result for “QVQLVESGGGLVQAGGSLRLSCAASGRIFYPNAMGWYRQAPGKERELVASISRGGPTSYADSVKGRFTISRDNAKNTVYLQINSLKPEDTAVYDCAADVAWYRYRSYYWGQGTQVTVSS” reads “high polyreactivity”; that for “QVQLVESGGGLVQAGGSLRLSCAASGRIFYPNTMGWYIQAPGKERELVAAISRSGGSTYYTDSVKGRFTISRDNAKNTVYLQMNSLKPEDTAVYYCATVPYESRYDYWGQGTQVTVSS”, “high polyreactivity”; that for “QVQLVESGGGLVQAGGSLRLSCAASGRIFYPYAMGWSRQAPGKERELVAAISSSAGITYYADSVKGRFTISRDNAKKTVYLQMNSLKPEDTAVYYCAKYPVRNPYGYRYDYWGQGTQVTVSS”, “high polyreactivity”.
To “QVQLVESGGGLVQAGGSLRLSCAASGRIFYPYAMGWYIQAPGKERELVADISIGGSTNYADSVKGRFTISRDNAKNTVYLQMNSLKPEDTAVYYCNAGGGFYGSTVEHDYWGQGTQVTVSS” belongs “low polyreactivity”.
For “QVQLVESGGGLVQAGGSLRLSCAASGRIFYPYAMGWYRQAPGKERELVAAITWSTGRTYYADSVKGRFTISRDNAKNTVYLQMNSLKPEDTAVYYCAATGTLKRRYGYWGQGTQVTVSS”, the “polyreactivity (PSR sort gate)” value was “high polyreactivity”.
The result for “QVQLVESGGGLVQAGGSLRLSCAASGRIFYPYAMGWYRQAPGKERELVGYSRGGSTNYADSVKGRFTISRDNAKNTVYLQMNSLKPEDTAVYYCARDVHRSGYLIFDYWGQGTQVTVSS” reads “low polyreactivity”.
To “QVQLVESGGGLVQAGGSLRLSCAASGRIFYPYAMVWYRQAPGKERELVAGISFRDGSRYYADSVKGRFTISRDNAKNTVYLQMNSLKPEDTAFYYSAAVGQTHTTSPLSTKFDYWGQGTQVTVSS” belongs “low polyreactivity”; to “QVQLVESGGGLVQAGGSLRLSCAASGRIFYPYFMGWYRQAPGKERELVAAISASGGRTYYADSVKGRFTISRDNSKNTVYLQMNSLKPEDTAVYYCNARTVPAGTLYDYWGQGTQVTVSS”, “low polyreactivity”.
To “QVQLVESGGGLVQAGGSLRLSCAASGRIFYPYSMGWYRQAPGKERELVATITYIGGSTYADSVKGRFTISRDNAKNTVYLQMNSLKPEDTAVYYCAASETYFRFPFGIYYYWGQGTQVTVSS” belongs “low polyreactivity”; to “QVQLVESGGGLVQAGGSLRLSCAASGRIFYQNALGWYRQAPGKERELVADITSGGSTYYADSVKGRFTISRDNAKNTVYLQMNSLKPEDTAVYDCNTPSGPGTVGSYRRKWYGYWGQGTQVTVSS”, “low polyreactivity”; to “QVQLVESGGGLVQAGGSLRLSCAASGRIFYQNVMGWYRQAPGKERELVAAITRRDVTTYADSVKGRFTISRDNAKNTVYLQMNSLKPEDTAVYYCNAVYYNWIGFDYWGQGTQVTVSS”, “low polyreactivity”.
As for “QVQLVESGGGLVQAGGSLRLSCAASGRIFYQYAMGWYRQAPGKEREMVAAISRRGASTYYADSVKGRFTISRDNAKNTVYLQMNSLKPEDTAVYYCAAEPRAYSHQYNYWGQGTQVTVSS”, the “polyreactivity (PSR sort gate)” value is listed as “high polyreactivity”.
The result for “QVQLVESGGGLVQAGGSLRLSCAASGRIFYRNAMGWYRQAAGKERELVAGITRGGSTNYADSVKGRFTISRDNAKNTDYLQMNSLKPEETAVYYCAKAIPAKFYSEAGYDYWGQGTQVTVSS” reads “low polyreactivity”; that for “QVQLVESGGGLVQAGGSLRLSCAASGRIFYRNAMGWYRQAPGKERELVAAIRGSGGRTYYADSVKGRFTISRDNAKNTVYLQMNSLKPEDTAVYYCAAYGYYVEHPRGLSGPYDDDYWGQGTQVTVSS”, “low polyreactivity”.
Regarding “QVQLVESGGGLVQAGGSLRLSCAASGRIFYRNAMGWYRQAPGKERELVAAISSSAGSTYYADSVKGRFTISRDNAKNTVYLQMNSLKPEDTAVYYCAAGSGTFVTRYRYGYWGQGTQVTVSS”, the “polyreactivity (PSR sort gate)” value is listed as “high polyreactivity”.
The result for “QVQLVESGGGLVQAGGSLRLSCAASGRIFYRNAMGWYRQAPGQERELVAAISKSGGSTYYADSVKGRFTISRDNAKNTVYLQMNSLKPEDTAVYYSAAGTRRTDGYSWGQGTQVTVAS” reads “high polyreactivity”; that for “QVQLVESGGGLVQAGGSLRLSCAASGRIFYRNTMGWYRQAPGKERELVAPITSSGASTYYADSVKGRFTISRDIAKNTVYLQMNSLKPEDTAVYFCGAQPYVEGTKRYYWGQGTQVTVSS”, “high polyreactivity”.
To “QVQLVESGGGLVQAGGSLRLSCAASGRIFYRYAMGWYRQAPGKERELVAAIRYSGGRTYYADSVKGRFTISRDNAKNTVYLQMNSLKPEDTAVYYCAARGWYKSDYWGQGTQVTVSS” belongs “low polyreactivity”.
In the case of “QVQLVESGGGLVQAGGSLRLSCAASGRIFYRYAMGWYRQAPGKERELVAAITGSGGRTYADSVKGRFTISRDNAKNTVYLQMNSLKPEDTAVYYCNDRSFCPTESRYDYWGQGTQVTVSS”, the “polyreactivity (PSR sort gate)” value is “high polyreactivity”.
On to “QVQLVESGGGLVQAGGSLRLSCAASGRIFYRYAMGWYRQAPGKERELVAAITQSGGSTFYADSVKGRFTISRDNAKNTVYLQMNSLKPEDTAVYYCNRRGPGFYSTRFNYWGQGTQVTVSS”, for which the “polyreactivity (PSR sort gate)” value is “high polyreactivity”.
The result for “QVQLVESGGGLVQAGGSLRLSCAASGRIFYRYAMGWYRQAPGKERELVADITWRGGRTYYADSVKGRFTISRDNAKNTVYLQMNSLKPEDTAVYYCAATGGFYYWGQGTQVTVSS” reads “low polyreactivity”; that for “QVQLVESGGGLVQAGGSLRLSCAASGRIFYRYAMGWYRQAPGKERELVARITSSGSTNYADSVKGRFTISRDNAKNTVYLQMNSLKPEDTAVYYCAARKLFIPKYYYWGQGTQVTVSS”, “high polyreactivity”; that for “QVQLVESGGGLVQAGGSLRLSCAASGRIFYRYAMGWYRQAPGKERELVASITRSGITHYADSVKGRFTISRDNAKNTVYLQMNSLKPEDTAVYYCNARRGSPAPYDYWGQGTQVTVSS”, “high polyreactivity”.
